For assay [1], the target named is N1-VASP: recombinant N1 neuraminidase head domain of A/Michigan/45/2015 (H1N1) fused to the vasodilator-stimulated phosphoprotein tetramerization domain (human | influenza A virus A/Michigan/45/2015 (H1N1)). Put plainly: cross-linking.
Assay [2] addresses N1-SPP: recombinant N1 neuraminidase head domain of A/Michigan/45/2015 (H1N1) fused to the Sendai virus phosphoprotein tetramerization domain (Sendai virus | influenza A virus A/Michigan/45/2015 (H1N1)). The assay is described as follows: cross-linking.
Assay [3] concerns the target N1 NA head domain from A/Michigan/45/2015 (H1N1), obtained from N1-MPP by thrombin cleavage (influenza A virus A/Michigan/45/2015 (H1N1)). Put plainly: crystal structure; N1 head after thrombin removal of the MPP domain; sitting drop, 0.2 M calcium acetate, 20% PEG 3350, 20°C; 2.90 Å.
Assay [4] deals with N1-MPP: recombinant N1 neuraminidase head domain of A/Michigan/45/2015 (H1N1) fused to the measles virus phosphoprotein tetramerization domain (measles virus | influenza A virus A/Michigan/45/2015 (H1N1)). Put plainly: cross-linking.

Among the data in paper PMC8609353 are stoichiometry N values, retold here.

“N1-VASP: recombinant N1 neuraminidase head domain of A/Michigan/45/2015 (H1N1) fused to the vasodilator-stimulated phosphoprotein tetramerization domain”: in assay [1], the stoichiometry N amounted to 4.
“N1-SPP: recombinant N1 neuraminidase head domain of A/Michigan/45/2015 (H1N1) fused to the Sendai virus phosphoprotein tetramerization domain”: the stoichiometry N in assay [2] stood at 4.
Consider “N1 NA head domain from A/Michigan/45/2015 (H1N1), obtained from N1-MPP by thrombin cleavage (domain or fragment)”, for which the stoichiometry N in assay [3] amounted to 4.
Turning to “N1-MPP: recombinant N1 neuraminidase head domain of A/Michigan/45/2015 (H1N1) fused to the measles virus phosphoprotein tetramerization domain”, the stoichiometry N in assay [4] was determined as 4.

What is called stoichiometry N is the number of molecules, sites or subunits per partner or assembly.
